{"source": "the supplement of paper PMC11316812", "key": {"[1]": {"system": "hTERT-HMEC", "experiment": "percentage of EdU-negative (G0-arrested) nuclei per well, 72 h; higher = more G0 arrest", "settings": "reference: sequence is the full UniProt precursor, the tested protein was the secreted form or ectodomain"}, "[2]": {"system": "MCF7", "experiment": "percentage of EdU-negative (G0-arrested) nuclei per well, 72 h; higher = more G0 arrest", "settings": "reference: sequence is the full UniProt precursor, the tested protein was the secreted form or ectodomain"}, "[3]": {"settings": "protein concentration 0.0075 µM"}, "[4]": {"settings": "protein concentration 0.0225 µM"}, "[5]": {"settings": "protein concentration 0.01477 µM"}, "[6]": {"settings": "protein concentration 0.03125 µM"}, "[7]": {"settings": "protein concentration 0.1477 µM"}, "[8]": {"settings": "protein concentration 0.3125 µM"}, "[9]": {"settings": "protein concentration 0.02075 µM"}, "[10]": {"settings": "protein concentration 0.2075 µM"}}, "note": "± gives the standard deviation of the averaged measurements.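 Further: secreted proteins added to cultured cells, EdU pulse at the end, nuclei found by Hoechst imaging, EdU status from nuclear versus surrounding ring intensity ratio, PBS as neutral control.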", "data": [{"sequence": "MAFPPRRRLRLGPRGLPLLLSGLLLPLCRAFNLDVDSPAEYSGPEGSYFGFAVDFFVPSASSRMFLLVGAPKANTTQPGIVEGGQVLKCDWSSTRRCQPIEFDATGNRDYAKDDPLEFKSHQWFGASVRSKQDKILACAPLYHWRTEMKQEREPVGTCFLQDGTKTVEYAPCRSQDIDADGQGFCQGGFSIDFTKADRVLLGGPGSFYWQGQLISDQVAEIVSKYDPNVYSIKYNNQLATRTAQAIFDDSYLGYSVAVGDFNGDGIDDFVSGVPRAARTLGMVYIYDGKNMSSLYNFTGEQMAAYFGFSVAATDINGDDYADVFIGAPLFMDRGSDGKLQEVGQVSVSLQRASGDFQTTKLNGFEVFARFGSAIAPLGDLDQDGFNDIAIAAPYGGEDKKGIVYIFNGRSTGLNAVPSQILEGQWAARSMPPSFGYSMKGATDIDKNGYPDLIVGAFGVDRAILYRARPVITVNAGLEVYPSILNQDNKTCSLPGTALKVSCFNVRFCLKADGKGVLPRKLNFQVELLLDKLKQKGAIRRALFLYSRSPSHSKNMTISRGGLMQCEELIAYLRDESEFRDKLTPITIFMEYRLDYRTAADTTGLQPILNQFTPANISRQAHILLDCGEDNVCKPKLEVSVDSDQKKIYIGDDNPLTLIVKAQNQGEGAYEAELIVSIPLQADFIGVVRNNEALARLSCAFKTENQTRQVVCDLGNPMKAGTQLLAGLRFSVHQQSEMDTSVKFDLQIQSSNLFDKVSPVVSHKVDLAVLAAVEIRGVSSPDHVFLPIPNWEHKENPETEEDVGPVVQHIYELRNNGPSSFSKAMLHLQWPYKYNNNTLLYILHYDIDGPMNCTSDMEINPLRIKISSLQTTEKNDTVAGQGERDHLITKRDLALSEGDIHTLGCGVAQCLKIVCQVGRLDRGKSAILYVKSLLWTETFMNKENQNHSYSLKSSASFNVIEFPYKNLPIEDITNSTLVTTNVTWGIQPAPMPVPVWVIILAVLAGLLLLAVLVFVMYRMGFFKRVRPPQEEQEREQLQPHENGEGNSET", "values": [{"measurement": "percentage of EdU-negative", "setting": "[1]; [3]", "value": "5.23 ± 0.5", "unit": "%"}, {"measurement": "percentage of EdU-negative", "setting": "[1]; protein concentration 0.075 µM", "value": "7.03 ± 1", "unit": "%"}, {"measurement": "percentage of EdU-negative", "setting": "[2]; [3]", "value": "25.7 ± 3.1", "unit": "%"}, {"measurement": "percentage of EdU-negative", "setting": "[2]; protein concentration 0.075 µM", "value": "28.8 ± 2", "unit": "%"}]}, {"sequence": "MAFRGWRPPPPPLLLLLLWVTGQAAPVAGLGSDAELQIERRFVPDECPRTVRSGDFVRYHYVGTFPDGQKFDSSYDRDSTFNVFVGKGQLITGMDQALVGMCVNERRFVKIPPKLAYGNEGVSGVIPPNSVLHFDVLLMDIWNSEDQVQIHTYFKPPSCPRTIQVSDFVRYHYNGTFLDGTLFDSSHNRMKTYDTYVGIGWLIPGMDKGLLGMCVGEKRIITIPPFLAYGEDGDGKDIPGQASLVFDVALLDLHNPKDSISIENKVVPENCERISQSGDFLRYHYNGTLLDGTLFDSSYSRNRTFDTYIGQGYVIPGMDEGLLGVCIGEKRRIVVPPHLGYGEEGRGNIPGSAVLVFDIHVIDFHNPSDSISITSHYKPPDCSVLSKKGDYLKYHYNASLLDGTLLDSTWNLGKTYNIVLGSGQVVLGMDMGLREMCVGEKRTVIIPPHLGYGEAGVDGEVPGSAVLVFDIELLELVAGLPEGYMFIWNGEVSPNLFEEIDKDGNGEVLLEEFSEYIHAQVASGKGKLAPGFDAELIVKNMFTNQDRNGDGKVTAEEFKLKDQEAKHDEL", "values": [{"measurement": "percentage of EdU-negative", "setting": "[1]; [4]", "value": "5.15 ± 0.31", "unit": "%"}, {"measurement": "percentage of EdU-negative", "setting": "[1]; protein concentration 0.225 µM", "value": "25.4 ± 1.1", "unit": "%"}, {"measurement": "percentage of EdU-negative", "setting": "[2]; [4]", "value": "29.6 ± 1.2", "unit": "%"}, {"measurement": "percentage of EdU-negative", "setting": "[2]; protein concentration 0.225 µM", "value": "28.6 ± 3", "unit": "%"}]}, {"sequence": "MAFSGSQAPYLSPAVPFSGTIQGGLQDGLQITVNGTVLSSSGTRFAVNFQTGFSGNDIAFHFNPRFEDGGYVVCNTRQNGSWGPEERKTHMPFQKGMPFDLCFLVQSSDFKVMVNGILFVQYFHRVPFHRVDTISVNGSVQLSYISFQNPRTVPVQPAFSTVPFSQPVCFPPRPRGRRQKPPGVWPANPAPITQTVIHTVQSAPGQMFSTPAIPPMMYPHPAYPMPFITTILGGLYPSKSILLSGTVLPSAQRFHINLCSGNHIAFHLNPRFDENAVVRNTQIDNSWGSEERSLPRKMPFVRGQSFSVWILCEAHCLKVAVDGQHLFEYYHRLRNLPTINRLEVGGDIQLTHVQT", "values": [{"measurement": "percentage of EdU-negative", "setting": "[1]; [5]", "value": "5.5 ± 0.22", "unit": "%"}, {"measurement": "percentage of EdU-negative", "setting": "[1]; [6]", "value": "4.97 ± 0.35", "unit": "%"}, {"measurement": "percentage of EdU-negative", "setting": "[1]; [7]", "value": "9.26 ± 0.15", "unit": "%"}, {"measurement": "percentage of EdU-negative", "setting": "[1]; [8]", "value": "4.66 ± 0.35", "unit": "%"}, {"measurement": "percentage of EdU-negative", "setting": "[2]; [5]", "value": "30.2 ± 1.1", "unit": "%"}, {"measurement": "percentage of EdU-negative", "setting": "[2]; [6]", "value": "26.3 ± 2.5", "unit": "%"}, {"measurement": "percentage of EdU-negative", "setting": "[2]; [7]", "value": "39.3 ± 0.83", "unit": "%"}, {"measurement": "percentage of EdU-negative", "setting": "[2]; [8]", "value": "26.3 ± 0.4", "unit": "%"}]}, {"sequence": "MAFVCLAIGCLYTFLISTTFGCTSSSDTEIKVNPPQDFEIVDPGYLGYLYLQWQPPLSLDHFKECTVEYELKYRNIGSETWKTIITKNLHYKDGFDLNKGIEAKIHTLLPWQCTNGSEVQSSWAETTYWISPQGIPETKVQDMDCVYYNWQYLLCSWKPGIGVLLDTNYNLFYWYEGLDHALQCVDYIKADGQNIGCRFPYLEASDYKDFYICVNGSSENKPIRSSYFTFQLQNIVKPLPPVYLTFTRESSCEIKLKWSIPLGPIPARCFDYEIEIREDDTTLVTATVENETYTLKTTNETRQLCFVVRSKVNIYCSDDGIWSEWSDKQCWEGEDLSKKTLLRFWLPFGFILILVIFVTGLLLRKPNTYPKMIPEFFCDT", "values": [{"measurement": "percentage of EdU-negative", "setting": "[1]; [9]", "value": "4.91 ± 0.34", "unit": "%"}, {"measurement": "percentage of EdU-negative", "setting": "[1]; [10]", "value": "9.86 ± 0.6", "unit": "%"}, {"measurement": "percentage of EdU-negative", "setting": "[2]; [9]", "value": "26.8 ± 0.36", "unit": "%"}, {"measurement": "percentage of EdU-negative", "setting": "[2]; [10]", "value": "29.3 ± 0.53", "unit": "%"}]}]}
